# Source: patent publication US12630600B2 (MEDIMMUNE LIMITED, priority 2022, dated 2026)
# Starred links: 1 amine or outer side, 2 acyl side, 3 side chain; linkers in the order of their positions; H or OH if unused. Non-standard residues stand in square brackets, D forms with d. Groups on a side chain read outwards from the residue. Primed or numbered codes have the meaning given here. No end group written: not given here. *: point of attachment. C20 diacid = O=C(O)CCCCCCCCCCCCCCCCCCC(=O)*; C18 diacid = O=C(O)CCCCCCCCCCCCCCCCC(=O)*; Heptadecanoyl = CCCCCCCCCCCCCCCCC(=O)*; γGlu = O=C(O)[C@H](CCC(=O)[*:2])N[*:1]; Stearoyl = CCCCCCCCCCCCCCCCCC(=O)*; Palmitoyl = CCCCCCCCCCCCCCCC(=O)*; αMeF = C[C@](N)(Cc1ccccc1)C(=O)O; Myristoyl = CCCCCCCCCCCCCC(=O)*; (PEG)2 = polyethylene glycol 2; PEG2′ = polyethylene glycol 2; αMeS = C[C@](N)(CO)C(=O)O; AEEA = NCCOCCOCC(=O)O; Aib = CC(C)(N)C(=O)O
# B1: Peptide 12 (peptide)
# peptide: H[Aib]HGS[αMeF]TSDVSK[αMeF]LDSK([AEEA-AEEA-γGlu-C18 diacid])AARDFVQ[Aib]IANT-NH2
# modifications: N-terminus assumed
# SMILES: CC[C@H](C)[C@H](NC(=O)C(C)(C)NC(=O)[C@H](CCC(N)=O)NC(=O)[C@@H](NC(=O)[C@H](Cc1ccccc1)NC(=O)[C@H](CC(=O)O)NC(=O)[C@H](CCCNC(=N)N)NC(=O)[C@H](C)NC(=O)[C@H](C)NC(=O)[C@H](CCCCNC(=O)COCCOCCNC(=O)COCCOCCNC(=O)CC[C@H](NC(=O)CCCCCCCCCCCCCCCCC(=O)O)C(=O)O)NC(=O)[C@H](CO)NC(=O)[C@H](CC(=O)O)NC(=O)[C@H](CC(C)C)NC(=O)[C@](C)(Cc1ccccc1)NC(=O)[C@H](CCCCN)NC(=O)[C@H](CO)NC(=O)[C@@H](NC(=O)[C@H](CC(=O)O)NC(=O)[C@H](CO)NC(=O)[C@@H](NC(=O)[C@](C)(Cc1ccccc1)NC(=O)[C@H](CO)NC(=O)CNC(=O)[C@H](Cc1c[nH]cn1)NC(=O)C(C)(C)NC(=O)[C@@H](N)Cc1c[nH]cn1)[C@@H](C)O)C(C)C)C(C)C)C(=O)N[C@@H](C)C(=O)N[C@@H](CC(N)=O)C(=O)N[C@H](C(N)=O)[C@@H](C)O
# B2: Peptide 109 (peptide)
# peptide: HSQGS[αMeF]TSDVSK(Ac)[Aib]LDSK([AEEA-AEEA-γGlu-C18 diacid])AAQD[αMeF]VQ[Aib]IAN-NH2
# modifications: N-terminus assumed
# SMILES: CC[C@H](C)[C@H](NC(=O)C(C)(C)NC(=O)[C@H](CCC(N)=O)NC(=O)[C@@H](NC(=O)[C@](C)(Cc1ccccc1)NC(=O)[C@H](CC(=O)O)NC(=O)[C@H](CCC(N)=O)NC(=O)[C@H](C)NC(=O)[C@H](C)NC(=O)[C@H](CCCCNC(=O)COCCOCCNC(=O)COCCOCCNC(=O)CC[C@H](NC(=O)CCCCCCCCCCCCCCCCC(=O)O)C(=O)O)NC(=O)[C@H](CO)NC(=O)[C@H](CC(=O)O)NC(=O)[C@H](CC(C)C)NC(=O)C(C)(C)NC(=O)[C@H](CCCCNC(C)=O)NC(=O)[C@H](CO)NC(=O)[C@@H](NC(=O)[C@H](CC(=O)O)NC(=O)[C@H](CO)NC(=O)[C@@H](NC(=O)[C@](C)(Cc1ccccc1)NC(=O)[C@H](CO)NC(=O)CNC(=O)[C@H](CCC(N)=O)NC(=O)[C@H](CO)NC(=O)[C@@H](N)Cc1c[nH]cn1)[C@@H](C)O)C(C)C)C(C)C)C(=O)N[C@@H](C)C(=O)N[C@@H](CC(N)=O)C(N)=O
# B3: Peptide 13 (peptide)
# peptide: H[Aib]HGS[αMeF]TSDVSK[αMeF]LDSK([AEEA-AEEA-γGlu-C18 diacid])AARD[αMeF]VQ[Aib]IANT-NH2
# modifications: N-terminus assumed
# SMILES: CC[C@H](C)[C@H](NC(=O)C(C)(C)NC(=O)[C@H](CCC(N)=O)NC(=O)[C@@H](NC(=O)[C@](C)(Cc1ccccc1)NC(=O)[C@H](CC(=O)O)NC(=O)[C@H](CCCNC(=N)N)NC(=O)[C@H](C)NC(=O)[C@H](C)NC(=O)[C@H](CCCCNC(=O)COCCOCCNC(=O)COCCOCCNC(=O)CC[C@H](NC(=O)CCCCCCCCCCCCCCCCC(=O)O)C(=O)O)NC(=O)[C@H](CO)NC(=O)[C@H](CC(=O)O)NC(=O)[C@H](CC(C)C)NC(=O)[C@](C)(Cc1ccccc1)NC(=O)[C@H](CCCCN)NC(=O)[C@H](CO)NC(=O)[C@@H](NC(=O)[C@H](CC(=O)O)NC(=O)[C@H](CO)NC(=O)[C@@H](NC(=O)[C@](C)(Cc1ccccc1)NC(=O)[C@H](CO)NC(=O)CNC(=O)[C@H](Cc1c[nH]cn1)NC(=O)C(C)(C)NC(=O)[C@@H](N)Cc1c[nH]cn1)[C@@H](C)O)C(C)C)C(C)C)C(=O)N[C@@H](C)C(=O)N[C@@H](CC(N)=O)C(=O)N[C@H](C(N)=O)[C@@H](C)O
# B4: Peptide 14 (peptide)
# peptide: H[Aib]HGS[αMeF]TSDVSK[αMeF]LDSK([AEEA-AEEA-γGlu-γGlu-C20 diacid])AARD[αMeF]VQ[Aib]IANT-NH2
# modifications: N-terminus assumed
# SMILES: CC[C@H](C)[C@H](NC(=O)C(C)(C)NC(=O)[C@H](CCC(N)=O)NC(=O)[C@@H](NC(=O)[C@](C)(Cc1ccccc1)NC(=O)[C@H](CC(=O)O)NC(=O)[C@H](CCCNC(=N)N)NC(=O)[C@H](C)NC(=O)[C@H](C)NC(=O)[C@H](CCCCNC(=O)COCCOCCNC(=O)COCCOCCNC(=O)CC[C@H](NC(=O)CC[C@H](NC(=O)CCCCCCCCCCCCCCCCCCC(=O)O)C(=O)O)C(=O)O)NC(=O)[C@H](CO)NC(=O)[C@H](CC(=O)O)NC(=O)[C@H](CC(C)C)NC(=O)[C@](C)(Cc1ccccc1)NC(=O)[C@H](CCCCN)NC(=O)[C@H](CO)NC(=O)[C@@H](NC(=O)[C@H](CC(=O)O)NC(=O)[C@H](CO)NC(=O)[C@@H](NC(=O)[C@](C)(Cc1ccccc1)NC(=O)[C@H](CO)NC(=O)CNC(=O)[C@H](Cc1c[nH]cn1)NC(=O)C(C)(C)NC(=O)[C@@H](N)Cc1c[nH]cn1)[C@@H](C)O)C(C)C)C(C)C)C(=O)N[C@@H](C)C(=O)N[C@@H](CC(N)=O)C(=O)N[C@H](C(N)=O)[C@@H](C)O
# Molecular target: human GLP-1 receptor (human, UniProt P43220)
# Assay: cell-based or functional assay
row,Binder,"cAMP production, hGLP-1R EC50 (pM)"
1,HSQGS[αMeF]TSDVSK[αMeF]LDSK([(PEG)2-(PEG)2-γGlu-γGlu-Heptadecanoyl])AAQD[αMeF]VQ[Aib]IAN-NH2 [Peptide 88],1.04
2,HSQGS[αMeF]TSDVSK[αMeF]LDSK([PEG2′-PEG2′-γGlu-γGlu-Palmitoyl])AAQD[αMeF]VQ[Aib]IAN-NH2 (not fully specified) [Peptide 89],3.77
3,H[Aib]HGS[αMeF]TSDVSK[αMeF]LDSK([AEEA-AEEA-γGlu-C18 diacid])AAQDFVQ[Aib]IANT-NH2 [Peptide 11],157
4,HSQGS[αMeF]TSDVSK[Aib]LDSK([(PEG)2-(PEG)2-γGlu-γGlu-Palmitoyl])AAQD[αMeF]VQ[Aib]IIE-NH2 [Peptide 99],2.21
5,HSQGS[αMeF]TSDVSK[Aib]LDSK([(PEG)2-(PEG)2-γGlu-γGlu-Stearoyl])AAQD[αMeF]VQ[Aib]IAN-NH2 [Peptide 100],0.258
6,B1,14.5
7,B2,698
8,HSQGS[αMeF]TSDVSK(Ac)[Aib]LDSK([(PEG)2-(PEG)2-γGlu-γGlu-Stearoyl])AAQD[αMeF]VQ[Aib]IAN-NH2 [Peptide 110],0.627
9,HSQGS[αMeF]TSDVSKILDSKAAQD[αMeF]VQ[Aib]IAN-NH2 (not fully specified (residue 17)) [Peptide 111],1.92
10,B3,15.9
11,HSQGS[αMeF]TSDVSKILDSK([(PEG)2-(PEG)2-γGlu-γGlu-Palmitoyl])AAQD[αMeF]VQ[Aib]IINT-NH2 [Peptide 118],1.07
12,HSQGS[αMeF]TSDVSKILDSK([(PEG)2-(PEG)2-γGlu-γGlu-Myristoyl])AAQD[αMeF]VQ[Aib]IINT-NH2 [Peptide 119],1.39
13,HSQGS[αMeF]TSDVSKILDSK([(PEG)2-(PEG)2-γGlu-Stearoyl])AAQD[αMeF]VQ[Aib]IINT-NH2 [Peptide 120],1.81
14,HSQGS[αMeF]TSDVSKILDSK([(PEG)2-(PEG)2-γGlu-Palmitoyl])AAQD[αMeF]VQ[Aib]IINT-NH2 [Peptide 121],1.5
15,HSQGS[αMeF]TSDVSKILDSK([(PEG)2-(PEG)2-γGlu-Myristoyl])AAQD[αMeF]VQ[Aib]IINT-NH2 [Peptide 122],1.42
16,H[Aib]QGS[αMeF]TSDVSKILDSK([(PEG)2-(PEG)2-γGlu-γGlu-Palmitoyl])AAQD[αMeF]VQ[Aib]IINT-NH2 [Peptide 125],0.575
17,H[Aib]QGS[αMeF]TSDVSKILDSK([(PEG)2-(PEG)2-γGlu-Stearoyl])AAQD[αMeF]VQ[Aib]IINT-NH2 [Peptide 127],0.998
18,B4,93.8
19,H[Aib]QGS[αMeF]TSDVSKILDSK([(PEG)2-(PEG)2-γGlu-Palmitoyl])AAQD[αMeF]VQ[Aib]IINT-NH2 [Peptide 128],0.788
20,H[Aib]QGS[αMeF]TSDVSKILDSK([(PEG)2-(PEG)2-γGlu-Myristoyl])AAQD[αMeF]VQ[Aib]IINT-NH2 [Peptide 129],0.462
21,H[αMeS]QGS[αMeF]TSDVSKILDSK([PEG2′-PEG2′-γGlu-γGlu-Palmitoyl])AAQD[αMeF]VQ[Aib]IINT-NH2 [Peptide 131],0.511

# Molecular target: human glucagon receptor (human, UniProt P47871)
# Assay: cell-based or functional assay
row,Binder,"cAMP production, hGluc-R EC50 (pM)"
1,HSQGS[αMeF]TSDVSK[αMeF]LDSK([(PEG)2-(PEG)2-γGlu-γGlu-Heptadecanoyl])AAQD[αMeF]VQ[Aib]IAN-NH2 [Peptide 88],6.47
2,HSQGS[αMeF]TSDVSK[αMeF]LDSK([PEG2′-PEG2′-γGlu-γGlu-Palmitoyl])AAQD[αMeF]VQ[Aib]IAN-NH2 (not fully specified) [Peptide 89],15.3
3,H[Aib]HGS[αMeF]TSDVSK[αMeF]LDSK([AEEA-AEEA-γGlu-C18 diacid])AAQDFVQ[Aib]IANT-NH2 [Peptide 11],118
4,HSQGS[αMeF]TSDVSK[Aib]LDSK([(PEG)2-(PEG)2-γGlu-γGlu-Palmitoyl])AAQD[αMeF]VQ[Aib]IIE-NH2 [Peptide 99],33.2
5,HSQGS[αMeF]TSDVSK[Aib]LDSK([(PEG)2-(PEG)2-γGlu-γGlu-Stearoyl])AAQD[αMeF]VQ[Aib]IAN-NH2 [Peptide 100],40.5
6,B1,47.7
7,B2,> 26800
8,HSQGS[αMeF]TSDVSK(Ac)[Aib]LDSK([(PEG)2-(PEG)2-γGlu-γGlu-Stearoyl])AAQD[αMeF]VQ[Aib]IAN-NH2 [Peptide 110],48.5
9,HSQGS[αMeF]TSDVSKILDSKAAQD[αMeF]VQ[Aib]IAN-NH2 (not fully specified (residue 17)) [Peptide 111],2.09
10,B3,44
11,HSQGS[αMeF]TSDVSKILDSK([(PEG)2-(PEG)2-γGlu-γGlu-Palmitoyl])AAQD[αMeF]VQ[Aib]IINT-NH2 [Peptide 118],1.2
12,HSQGS[αMeF]TSDVSKILDSK([(PEG)2-(PEG)2-γGlu-γGlu-Myristoyl])AAQD[αMeF]VQ[Aib]IINT-NH2 [Peptide 119],1.7
13,HSQGS[αMeF]TSDVSKILDSK([(PEG)2-(PEG)2-γGlu-Stearoyl])AAQD[αMeF]VQ[Aib]IINT-NH2 [Peptide 120],2.62
14,HSQGS[αMeF]TSDVSKILDSK([(PEG)2-(PEG)2-γGlu-Palmitoyl])AAQD[αMeF]VQ[Aib]IINT-NH2 [Peptide 121],1.2
15,HSQGS[αMeF]TSDVSKILDSK([(PEG)2-(PEG)2-γGlu-Myristoyl])AAQD[αMeF]VQ[Aib]IINT-NH2 [Peptide 122],0.857
16,H[Aib]QGS[αMeF]TSDVSKILDSK([(PEG)2-(PEG)2-γGlu-γGlu-Palmitoyl])AAQD[αMeF]VQ[Aib]IINT-NH2 [Peptide 125],6.68
17,H[Aib]QGS[αMeF]TSDVSKILDSK([(PEG)2-(PEG)2-γGlu-Stearoyl])AAQD[αMeF]VQ[Aib]IINT-NH2 [Peptide 127],12.6
18,B4,462
19,H[Aib]QGS[αMeF]TSDVSKILDSK([(PEG)2-(PEG)2-γGlu-Palmitoyl])AAQD[αMeF]VQ[Aib]IINT-NH2 [Peptide 128],4.7
20,H[Aib]QGS[αMeF]TSDVSKILDSK([(PEG)2-(PEG)2-γGlu-Myristoyl])AAQD[αMeF]VQ[Aib]IINT-NH2 [Peptide 129],4.1
21,H[αMeS]QGS[αMeF]TSDVSKILDSK([PEG2′-PEG2′-γGlu-γGlu-Palmitoyl])AAQD[αMeF]VQ[Aib]IINT-NH2 [Peptide 131],17.8
